# Laboratory results taken from paper PMC3586275 (Biochemistry, 2009).
# B1: streptococcal coaggregation regulator (ScaR) (natural protein, Streptococcus gordonii, UniProt Q9RFN3 1-215, looked up)
# chain: MTPNKEDYLKCLYELGTRHNKITNKEIAQLMQVSPPAVTEMMKKLLAEELLIKDKKAGYLLTDLGLKLVSDLYRKHRLIEVFLVHHLGYTTEEIHEEAEVLEHTVSDHFVERLDQLLDYPKACPHGGTIPAKGELLVEKHKLTLEEAKEKGDYILARVHDNFDLLTYLERNGLQVGKTIRFLGYDDFSHLYSLEVDGQEIQLAQPIAQQIYVEKI
# Target: the molecule itself
# Experiment: SEC
protein,measurement,value
B1,stoichiometry N,2
